Data as given in US20230235054A1 (BIOATLA, published 2023).

T1: cynoNectin4-mFc (cyno, UniProt A0A2K5WES1 32-349)
T1 construct: Immobilized on the SPR chip; also called cyanoNectin4; not shown: mFc (mouse Fc)
T1 sequence: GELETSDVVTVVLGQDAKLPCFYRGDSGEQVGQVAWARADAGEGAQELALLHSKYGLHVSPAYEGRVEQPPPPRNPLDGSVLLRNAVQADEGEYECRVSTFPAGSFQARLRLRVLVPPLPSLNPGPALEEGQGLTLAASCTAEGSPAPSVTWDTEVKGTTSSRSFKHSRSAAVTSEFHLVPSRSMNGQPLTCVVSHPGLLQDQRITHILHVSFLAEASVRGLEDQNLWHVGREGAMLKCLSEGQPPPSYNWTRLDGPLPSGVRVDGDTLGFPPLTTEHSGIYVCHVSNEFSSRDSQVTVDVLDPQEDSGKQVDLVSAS

T2: huNectin4-His (human, UniProt Q96NY8 32-349)
T2 construct: Immobilized on the SPR chip; also called humanNectin4; human Nectin4; not shown: His tag
T2 sequence (looked up): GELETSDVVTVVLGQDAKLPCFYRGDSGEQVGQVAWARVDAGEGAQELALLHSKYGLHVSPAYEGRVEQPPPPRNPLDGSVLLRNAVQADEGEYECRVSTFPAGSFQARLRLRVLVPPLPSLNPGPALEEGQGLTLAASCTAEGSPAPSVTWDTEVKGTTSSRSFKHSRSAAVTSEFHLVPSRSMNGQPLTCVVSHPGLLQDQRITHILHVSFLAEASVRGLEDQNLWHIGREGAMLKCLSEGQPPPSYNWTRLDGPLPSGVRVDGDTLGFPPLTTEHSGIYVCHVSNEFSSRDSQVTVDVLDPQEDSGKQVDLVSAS

T3: recombinant human Nectin4 antigen (human, UniProt Q96NY8 32-349)
T3 construct: construct not described
T3 sequence (looked up): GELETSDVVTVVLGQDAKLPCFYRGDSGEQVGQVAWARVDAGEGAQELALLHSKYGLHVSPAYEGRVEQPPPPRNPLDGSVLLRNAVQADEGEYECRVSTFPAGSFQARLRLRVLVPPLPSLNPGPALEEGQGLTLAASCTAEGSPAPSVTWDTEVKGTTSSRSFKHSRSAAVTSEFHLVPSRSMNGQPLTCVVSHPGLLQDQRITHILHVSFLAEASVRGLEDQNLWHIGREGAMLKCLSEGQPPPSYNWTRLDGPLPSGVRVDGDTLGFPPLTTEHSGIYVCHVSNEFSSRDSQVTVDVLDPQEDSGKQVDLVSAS

T4: human Nectin-4 on cells (human, UniProt Q96NY8 32-510)
T4 sequence (looked up): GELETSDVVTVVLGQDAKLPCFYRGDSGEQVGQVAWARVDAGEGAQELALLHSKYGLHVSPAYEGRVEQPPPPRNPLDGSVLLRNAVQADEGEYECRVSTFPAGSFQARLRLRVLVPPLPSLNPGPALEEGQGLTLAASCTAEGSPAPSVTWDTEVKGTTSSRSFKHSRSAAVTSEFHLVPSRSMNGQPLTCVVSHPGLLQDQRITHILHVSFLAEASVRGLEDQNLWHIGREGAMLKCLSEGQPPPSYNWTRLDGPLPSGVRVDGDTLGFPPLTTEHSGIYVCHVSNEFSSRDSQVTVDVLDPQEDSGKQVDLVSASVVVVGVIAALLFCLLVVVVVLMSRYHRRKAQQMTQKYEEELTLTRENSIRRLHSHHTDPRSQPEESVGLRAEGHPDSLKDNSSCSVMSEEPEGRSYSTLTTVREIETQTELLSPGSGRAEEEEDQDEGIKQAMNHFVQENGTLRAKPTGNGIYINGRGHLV


Experiments:
cynoNectin4-mFc = target: T1, cynoNectin4-mFc; assay: SPR, cynoNectin4-mFc immobilized, pH 6.0
Protocol: (§1) Binding kinetics of anti-Nectin4 antibodies were measured by surface plasmon resonance using a SPR2/4 instrument (Sierra Sensors, Hamburg, Germany) and flat amine sensor chips. The SPR sensor contained four flow cells (FC1-FC4), each of which was addressed individually or in groups. huNectin4-His was immobilized in FC2, and cynoNectin4-mFc in FC4. No protein was immobilized in FC1 and FC3 which were used as control surfaces for FC2 and FC4, respectively.
(§2) All injections were done at a flow rate of 25 μL/min at 25° C. The sensor surface was activated with 1-ethyl-3-(3-dimethylaminopropyl)-carbodiimide (EDC) and N-hydroxysuccinimide (NHS) (200 mM/50 mM) for 480 seconds. HuNectin4-His (2 μg/mL in 10 mM NaAc, pH4.5) was injected for 480s and the surface was inactivated by injecting 1M ethanolamine-HCl for 480s. CynoNectin4 was immobilized using the same conditions as described for huNectin4-His, except that the cynoNectin4 was diluted into 10 mM NaAc buffer having pH 5.0. The control surface was activated and deactivated using the same conditions, but without injecting protein. PBST buffer (PBS pH 7.4 with 0.05% TWEEN20™) was used as running buffer for the surface preparation. The running solution was switched to PBST with 30 mM sodium bicarbonate with the pH adjusted as indicated in the figures before the analyte injections. The instrument was equilibrated with the running solution for one hour before the first analyte injection.
(§3) The off-rate was measured for 360s. The chip surface was regenerated after each cycle of interaction analysis by injecting 6 μL of 10 mM glycine (pH 2.0). Flow cells 1 and 3 without immobilized protein were used as control surfaces for reference subtraction.

huNectin4-His = target: T2, huNectin4-His; assay: SPR, huNectin4-His immobilized, pH 6.0
Protocol: as §1, §2, §3

[1] = target: T3, recombinant human Nectin4 antigen; assay: pH range ELISA, 30 ng/mL, pH of 50% binding activity
Protocol: 1) Coat ELISA plates with 100 μL of 1 μg/mL recombinant human Nectin4 antigen in carbonate-bicarbonate coating buffer [0462] 2) Cover plates with sealing film and incubate overnight at 4° C. […] 3) Decant plates and tap out residual liquid on a stack of paper towels [0464] 4) Wash wells twice by dispensing 200 μL of various pH incubation buffer to the wells and completely aspirate the contents [0465] 5) Add 200 μL of various pH incubation buffers (pH5.5, 6.0, 6.2, 6.5, 6.7, 7.0 and 7.4) to the wells. Cover with sealing film and place the plate onto a plate shaker (set to 200 rpm) for 60 minutes at room temperature [0466] 6) Decant plates and tap out residual liquid on a stack of paper towels [0467] 7) Serially dilute test substances in various pH incubation buffers (pH5.5, 6.0, 6.2, 6.5, 6.7, 7.0 and 7.4) to 30 ng/mL [0468] 8) Add 100 μL/well of diluted test substances to the plates [0469] 9) Cover with sealing film and place the plates onto a plate shaker (set to 200 rpm) for 60 minutes at room temperature. [0470] 10) Decant plates and tap out residual liquid on a stack of paper towels. […] 12) Dilute the HRP secondary antibody at 1:2500 in various pH incubation buffers (pH5.5, 6.0, 6.2, 6.5, 6.7, 7.0 and 7.4) [0473] 13) Add 100 μL HRP secondary antibody diluted in various pH incubation buffers (pH5.5, 6.0, 6.2, 6.5, 6.7, 7.0 and 7.4) to each well. […] 14) Cover with sealing film and place the plates onto a plate shaker (set to 200 rpm) for 60 minutes at room temperature. [0475] 15) Decant plates and tap out residual liquid on a stack of paper towels. […] 16) Wash wells three times by dispensing 200 μL of various pH wash buffer (pH5.5, 6.0, 6.2, 6.5, 6.7, 7.0 and 7.4) to the wells and completely aspirating the contents [0477] 17) Dispense 50 μL per well of the TMB substrate solution into all wells of plates.

human Nectin-4 on cells = target: T4, human Nectin-4 on cells; assay: cell-based or functional assay

Row | Binder | Kd (cynoNectin4-mFc) [nM] | Kd (huNectin4-His) [nM] | koff (huNectin4-His) [s⁻¹] | kon (huNectin4-His) [M⁻¹ s⁻¹] | koff (cynoNectin4-mFc) [s⁻¹] | kon (cynoNectin4-mFc) [M⁻¹ s⁻¹] | pH inflection point [1] [pH] | Ratio (pH 7.4/6.0) of cell killing EC50 (human Nectin-4 on cells)
1 | BAP-143-wildtype (antibody, V domains shown, 150 kDa used in SPR; also called BAP143-00-00; benchmark (BM)) VH: EVQLVESGGGLVQPGGSLRLSCAASGFTFSSYNMNWVRQAPGKGLEWVSYISSSSSTIYYADSVKGRFTISRDNAKNSLSLQMNSLRDEDTAVYYCARAYYYGMDVWGQGTTVTVSS VL: DIQMTQSPSSVSASVGDRVTITCRASQGISGWLAWYQQKPGKAPKFLIYAASTLQSGVPSRFSGSGSGTDFTLTISSLQPEDFATYYCQQANSFPPTFGGGTKVEIK | 1.06 | 0.149 | – | – | – | – | – | –
2 | BAP-143-06-24-16 (antibody, V domains shown, Used as a conjugate with a linker payload (CAB ADC)) VH: EVQLVQSGAEVKKPGATVKISCKVSGFTFSSYNMNWIRQSPSRGLEWLGYISSSSSTIYYADSVKGRFTISRDNSKNTLYLQMNSLRAEDTAVYYCARAYYYGDDVWGQGTLVTVSS VL: DIQMTQSPSSVSASVGDRVTITCHASQGISGWLAWYQQKPGKAPKFLIYAASTLQSGVPSRFSGSGSGTDFTLTISSLQPEDFATYYCQQANSFPPTFGGGTKVEIK | – | 0.0944 | 0.00033 | 3.5e+06 | – | – | – | –
3 | BAP-143-00-01 (antibody, V domains shown, Used as a conjugate with a linker payload (CAB ADC)) VH: EVQLVESGGGLVQPGGSLRLSCAASGFTFSSYNMNWVRQAPGKGLEWVSYISSSSSTIYYADSVKGRFTISRDNAKNSLSLQMNSLRDEDTAVYYCARAYYYGMDVWGQGTTVTVSS VL: DIQMTQSPSSVSASVGDRVTITCRASQGISGWEAWYQQKPGKAPKFLIYAASTLQSGVPSRFSGSGSGTDFTLTISSLQPEDFATYYCQQANSFPPTFGGGTKVEIK | 3.04 | 0.739 | 0.000771 | 1.04e+06 | 0.00248 | 817000 | 6.59 | 2.1
4 | BAP-143-07-03-12 (antibody, V domains shown, Used as a conjugate with a linker payload (CAB ADC)) VH: EVQLVESGGGLVQPGGSLRLSCAASGFTFSSYNMNWVRQAPGKGLEWVSYISSSSSTIYYADSVKGRFTISRDNAKNSLSLQMNSLRDEDTAVYYCARAYYYGMDKWGQGTTVTVSS VL: DIQMTQSPSSVSASVGDRVTITCRASQGISGWEAWYQQKPGKAPKFLIYAASTLQSGVPSRFSGSGSGTDFTLTISSLQPEDFATYYCQQANSFPPTFGGGTKVEIK | – | 0.69 | 0.000869 | 1.26e+06 | – | – | – | –
5 | BAP-143-00-05 (antibody, V domains shown, Used as a conjugate with a linker payload (CAB ADC)) VH: EVQLVESGGGLVQPGGSLRLSCAASGFTFSSYNMNWVRQAPGKGLEWVSYISSSSSTIYYADSVKGRFTISRDNAKNSLSLQMNSLRDEDTAVYYCAEAYYYGMDVWGQGTTVTVSS VL: DIQMTQSPSSVSASVGDRVTITCRASQGISGWLAWYQQKPGKAPKFLIYAASTLQSGVPSRFSGSGSGTDFTLTISSLQPEDFATYYCQQANSFPPTFGGGTKVEIK | 7.02 | – | – | – | 0.00449 | 639000 | 6.99 | 2
6 | BAP-143-06-33-16 (antibody, V domains shown, Used as a conjugate with a linker payload (CAB ADC)) VH: EVQLVQSGAEVKKPGATVKISCKVSGFTFSSYNMNWIRQSPSRGLEWLGYISSSSSTIYYADSVKGRFTISRDNSKNTLYLQMNSLRAEDTAVYYCARAYYYGDDVWGQGTLVTVSS VL: DIQMTQSPSSVSASVGDRVTITCRASQGISGWEAWYQQKPGKAPKFLIYAASTLQSGVPSRFSGSGSGTDFTLTISSLQPEDFATYYCQQANSFPPTFGGGTKVEIK | – | 0.11 | 0.000195 | 1.77e+06 | – | – | – | –
7 | BAP-143-00-06 (antibody, V domains shown, Used as a conjugate with a linker payload (CAB ADC)) VH: EVQLVESGGGLVQPGGSLRLSCAASGFTFSSYNMNWVRQAPGKGLEWVSYISSSSSTIYYADSVKGRFTISRDNAKNSLSLQMNSLRDEDTAVYYCARAYYYGDDVWGQGTTVTVSS VL: DIQMTQSPSSVSASVGDRVTITCRASQGISGWLAWYQQKPGKAPKFLIYAASTLQSGVPSRFSGSGSGTDFTLTISSLQPEDFATYYCQQANSFPPTFGGGTKVEIK | 0.56 | – | – | – | 0.00141 | 2.52e+06 | 6.77 | 1.2
8 | BAP-143-00-03 (antibody, V domains shown, Used as a conjugate with a linker payload (CAB ADC)) VH: EVQLVESGGGLVQPGGSLRLSCAASGFTFSSYNMNWVRQAPGKGLEWVSYISSSSSTIYYADSVKGRFTISRDNAKNSLSLQMNSLRDEDTAVYYCARAYYYGMDVWGQGTTVTVSS VL: DIQMTQSPSSVSASVGDRVTITCRASQGISGWLAWYQQKPGKAPKFLIYAASTLQSGVPSRFSGSGSGTDFTLTISSLQPEDFATYYCQQANSFPDTFGGGTKVEIK | 2.33 | – | – | – | 0.00235 | 1.01e+06 | 6.71 | 2.6
9 | BAP-143-00-04 (antibody, V domains shown, Used as a conjugate with a linker payload (CAB ADC)) VH: EVQLVESGGGLVQPGGSLRLSCAASGFTFSSYNDNWVRQAPGKGLEWVSYISSSSSTIYYADSVKGRFTISRDNAKNSLSLQMNSLRDEDTAVYYCARAYYYGMDVWGQGTTVTVSS VL: DIQMTQSPSSVSASVGDRVTITCRASQGISGWLAWYQQKPGKAPKFLIYAASTLQSGVPSRFSGSGSGTDFTLTISSLQPEDFATYYCQQANSFPPTFGGGTKVEIK | 2.08 | – | – | – | 0.00377 | 1.82e+06 | 6.81 | 2.7
10 | BAP-143-00-02 (antibody, V domains shown, Used as a conjugate with a linker payload (CAB ADC)) VH: EVQLVESGGGLVQPGGSLRLSCAASGFTFSSYNMNWVRQAPGKGLEWVSYISSSSSTIYYADSVKGRFTISRDNAKNSLSLQMNSLRDEDTAVYYCARAYYYGMDVWGQGTTVTVSS VL: DIQMTQSPSSVSASVGDRVTITCRASQGISGWLAWYQQKPGKAPKFLIYAASTLQSGVPSRFSGSGSGTDFTLTISSLQPEDFATYYCQQANSEPPTFGGGTKVEIK | 5.46 | – | – | – | 0.00242 | 443000 | 6.7 | 1.7
